Where only a bound is given, the exact number is not on record here.

A word on the Kd: it is the free concentration of one partner at which half of the binding sites on the other are occupied at equilibrium, for simple one-to-one binding. In general, koff refers to the first-order rate constant of dissociation. The kon is the second-order rate constant of association.

First the molecules themselves.
B1: VH1.1-4GS-VH1.1-His6 (VHH)
chain: EVQLVESGGGVVRPGGSLRLSCSASGFTFDDYGMSWVRQAPGKGLEWVSGIHWNGGNSGYADSVKGRFTISRDNAKNSLYLQMNSLRAEDTALYYCARIPREDCSSASCYTDAIDFWGPGTMVTVSSGGGGSGGGGSGGGGSGGGGSEVQLVESGGGVVRPGGSLRLSCSASGFTFDDYGMSWVRQAPGKGLEWVSGIHWNGGNSGYADSVKGRFTISRDNAKNSLYLQMNSLRAEDTALYYCARIPREDCSSASCYTDAIDFWGPGTMVTVSSAAAHHHHHH
B2: VH1.1-12GS-VH1.1-His6 (VHH)
chain: EVQLVESGGGVVRPGGSLRLSCSASGFTFDDYGMSWVRQAPGKGLEWVSGIHWNGGNSGYADSVKGRFTISRDNAKNSLYLQMNSLRAEDTALYYCARIPREDCSSASCYTDAIDFWGPGTMVTVSSGGGGSGGGGSGGGGSGGGGSGGGGSGGGGSGGGGSGGGGSGGGGSGGGGSGGGGSGGGGSEVQLVESGGGVVRPGGSLRLSCSASGFTFDDYGMSWVRQAPGKGLEWVSGIHWNGGNSGYADSVKGRFTISRDNAKNSLYLQMNSLRAEDTALYYCARIPREDCSSASCYTDAIDFWGPGTMVTVSSAAAHHHHHH
B3: VH1.1-8GS-VH1.1-His6 (VHH)
chain: EVQLVESGGGVVRPGGSLRLSCSASGFTFDDYGMSWVRQAPGKGLEWVSGIHWNGGNSGYADSVKGRFTISRDNAKNSLYLQMNSLRAEDTALYYCARIPREDCSSASCYTDAIDFWGPGTMVTVSSGGGGSGGGGSGGGGSGGGGSGGGGSGGGGSGGGGSGGGGSEVQLVESGGGVVRPGGSLRLSCSASGFTFDDYGMSWVRQAPGKGLEWVSGIHWNGGNSGYADSVKGRFTISRDNAKNSLYLQMNSLRAEDTALYYCARIPREDCSSASCYTDAIDFWGPGTMVTVSSAAAHHHHHH
B4: 2.77-6GS-1.1-6GS-1.1 (bispecific antibody)
chain: EVQLVESGGGLVKPGGSLRLSCAASGFTFSDSSMTWMRQAPGKGLEWVSYISSGGGVKFYTDSVKGRFTISRDNAKNSLYLQMNSLRAEDTAVYYCAREAPLRLGESPHDAFDISGQGTMVTVSSGGGGSGGGGSGGGGSGGGGSGGGGSGGGGSEVQLVESGGGVVRPGGSLRLSCSASGFTFDDYGMSWVRQAPGKGLEWVSGIHWNGGNSGYADSVKGRFTISRDNAKNSLYLQMNSLRAEDTALYYCARIPREDCSSASCYTDAIDFWGPGTMVTVSSGGGGSGGGGSGGGGSGGGGSGGGGSGGGGSEVQLVESGGGVVRPGGSLRLSCSASGFTFDDYGMSWVRQAPGKGLEWVSGIHWNGGNSGYADSVKGRFTISRDNAKNSLYLQMNSLRAEDTALYYCARIPREDCSSASCYTDAIDFWGPGTMVTVSSAAAHHHHHH
B5: VH 1.2-6GS-VH 1.2 (VHH)
chain: EVQLVESGGGVVRPGGSLRLSCAASGFTFDDYGMSWVRQAPGKGLEWVSGIHWNGGSTGYADSVKGRFTISRDNAKNSLYLQMNSLRAEDTALYYCARIPREDCSSASCYTDAIDFWGQGTMVTVSSGGGGSGGGGSGGGGSGGGGSGGGGSGGGGSEVQLVESGGGVVRPGGSLRLSCAASGFTFDDYGMSWVRQAPGKGLEWVSGIHWNGGSTGYADSVKGRFTISRDNAKNSLYLQMNSLRAEDTALYYCARIPREDCSSASCYTDAIDFWGQGTMVTVSSAAAHHHHHH
notes: It is built here from its name, the (Gly4Ser)n linker definition and the statement that the constructs used carried C-terminal AAA-His6; also called 1.2-6GS-1.2; LAG3 bivalent
B6: VH 1.2 (VHH)
VHH: EVQLVESGGGVVRPGGSLRLSCAASGFTFDDYGMSWVRQAPGKGLEWVSGIHWNGGSTGYADSVKGRFTISRDNAKNSLYLQMNSLRAEDTALYYCARIPREDCSSASCYTDAIDFWGQGTMVTVSS
notes: Human VH single domain antibody against LAG-3; It is VH 1.1 with S23A, P119Q, N57S and S58T; also called variant 2
B7: variant 5 of VH 1.1 (VHH)
VHH: EVQLVESGGGVVRPGGSLRLSCAASGFTFNDFGMSWVRQAPGKGLEWVSGIHWNGGNTGYADSVKGRFTISRDNAKNSLYLQMNSLRAEDTALYYCARIPREDCSSASCYTDAIDFWGPGTMVTVSS
notes: 4
B8: variant 6 of VH 1.1 (VHH)
VHH: EVQLVESGGGVVRPGGSLRLSCAASGFTFDDFGMSWVRQAPGKGLEWVSGIHWNSDITAYADSVKGRFTISRDNAKNSLYLQMNSLRAEDTALYYCARIPREDCSSASCYTDAIDFWGPGTMVTVSS
notes: 4
B9: variant 1 of VH 1.1 (VHH)
VHH: EVQLVESGGGVVRPGGSLRLSCAASGFTFDDYGMSWVRQAPGKGLEWVSGIHWNGGNSGYADSVKGRFTISRDNAKNSLYLQMNSLRAEDTALYYCARIPREDCSSASCYTDAIDFWGPGTMVTVSS
B10: variant 8 of VH 1.1 (VHH)
VHH: EVQLVESGGGVVRPGGSLRLSCAASGFTFNDYGMSWVRQAPGKGLEWVSGIHWNGGNSGYADSVKGRFTISRDNAKNSLYLQMNSLRAEDTALYYCARIPREDCSSTSCYTDAIDFWGPGTMVTVSS
notes: 4
B11: variant 4 of VH 1.1 (VHH)
VHH: EVQLVESGGGVVRPGGSLRLSCAASGFTFDDYGMSWVRQAPGKGLEWVSGIHWIGGNSGYADSVKGRFTISRDNAKNSLYLQMNSLRAEDTALYYCARIPREDCSSASCYTDAIDFWGPGTMVTVSS
notes: 4
B12: variant 9 of VH 1.1 (VHH)
VHH: EVQLVESGGGVVRPGGSLRLSCAASGFTFDDYGMSWVRQAPGKGLEWVSGIHWNGDSTGYADSVKGRFTISRDNAKNSLYLQMNSLRAEDTALYHCARIPREDCSSASCYTDAIDFWGPGTMVTVSS
notes: 4
B13: variant 7 of VH 1.1 (VHH)
VHH: EVQLVESGGGVVRPGGSLRLSCAASGFTFDDFGMSWVRQAPGKGLEWVSGIHWNGGNTGYADSVKGRFTISRDNAKNSLYLQMNSLRAEDTALYYCARIPREDCSVAACYTDAIDFWGPGTMVTVSS
notes: 4
B14: variant 3 of VH 1.1 (VHH)
VHH: EVQLVESGGGVVRPGGSLRLSCAASGFTFDDYGMSWVRQAPGKGLEWVSGIHWNGGSTGYADSVKGRFTISRDNAKNSLYLQMNSLRAEDTALYYCARIPREDCSSASCYTDAIDFWGPGTMVTVSS
notes: 4
B15: VH 2.77 (VHH)
VHH: EVQLVESGGGLVKPGGSLRLSCAASGFTFSDSSMTWMRQAPGKGLEWVSYISSGGGVKFYTDSVKGRFTISRDNAKNSLYLQMNSLRAEDTAVYYCAREAPLRLGESPHDAFDISGQGTMVTVSS

T2 sequence (Q15116 25-288 limits assumed): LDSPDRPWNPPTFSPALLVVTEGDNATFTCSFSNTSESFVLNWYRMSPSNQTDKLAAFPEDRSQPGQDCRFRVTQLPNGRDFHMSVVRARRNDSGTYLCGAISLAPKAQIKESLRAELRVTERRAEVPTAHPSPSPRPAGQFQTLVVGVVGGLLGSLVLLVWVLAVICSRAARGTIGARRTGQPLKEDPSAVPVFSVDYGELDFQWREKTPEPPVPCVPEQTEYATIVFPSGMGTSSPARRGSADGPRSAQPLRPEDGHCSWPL

In one assay the target is T1, human LAG-3 expressed on cells (human, UniProt P18627 23-525).
T1 sequence: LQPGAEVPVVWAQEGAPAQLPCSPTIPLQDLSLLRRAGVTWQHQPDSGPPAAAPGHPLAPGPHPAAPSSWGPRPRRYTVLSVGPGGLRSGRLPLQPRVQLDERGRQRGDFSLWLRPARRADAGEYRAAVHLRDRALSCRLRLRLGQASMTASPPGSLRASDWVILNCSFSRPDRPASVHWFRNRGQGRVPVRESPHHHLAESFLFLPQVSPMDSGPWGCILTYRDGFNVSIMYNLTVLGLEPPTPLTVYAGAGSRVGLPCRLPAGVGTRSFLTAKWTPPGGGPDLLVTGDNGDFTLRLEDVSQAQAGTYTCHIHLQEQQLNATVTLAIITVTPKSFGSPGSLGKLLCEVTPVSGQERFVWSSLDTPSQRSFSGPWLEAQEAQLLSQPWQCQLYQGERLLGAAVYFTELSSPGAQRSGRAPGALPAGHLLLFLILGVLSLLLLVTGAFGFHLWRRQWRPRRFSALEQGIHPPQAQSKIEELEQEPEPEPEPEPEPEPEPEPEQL
The assay can be described thus: cell-based or functional assay.
For the molecule B1, the “EC50 (M), NFAT-Luciferase Reporter Gene assay (LAG-3:MHCII)” value (from here on “EC50 (M) … (LAG-3:MHCII)”) stood at 1.4e-09 M.
Consider B2, for which the “EC50 (M) … (LAG-3:MHCII)” value is 3.3e-09 M.
With B3, the “EC50 (M) … (LAG-3:MHCII)” value was found to be 5.4e-09 M.
With B4, the “EC50 (M) … (LAG-3:MHCII)” value came to 6.6e-09 M.

A further assay addresses T2, human PD-1 expressed on cells (human, UniProt Q15116 25-288). The assay can be described thus: cell-based or functional assay.
As to B4, the “potency in the PD-1:PD-L1 NFAT-luciferase reporter assay, fold lower than monoclonal antibodies” value was > 30 fold.

The next assay deals with T3, Rhesus monkey LAG-3 (used as cynomolgus LAG-3) (Rhesus monkey (called cynomolgus in the …)).
T3 construct: extracellular domain
The assay is described as follows: BLI (Octet); cynomolgus LAG-3 immobilised on ARG2 sensors, 1:1 fit. On the procedure: (§1) Binding kinetics for multi-valent and bispecific VH were also measured in real-time bio-layer interferometer based biosensor Octet (ForteBio). […] All the binding studies were performed in HBS-ET Octet kinetics buffer. Biosensors were washed in Octet kinetics buffer in between different steps. […] The contact time for each of the association steps was 150 seconds and the dissociation step was 400 seconds. […] To compare the constructs, kinetic association (kₐ) and dissociation (kd) rate constants were determined by processing and fitting the data to a 1:1 binding model using ForteBio Analysis software.
For orientation: In BLI a coated tip is dipped into the sample, and binding shifts an interference pattern.
With B5, binding was characterised by a dissociation constant (Kd) of 0.536 nM, the koff stood at 0.000148 s⁻¹ and the kon came out at 276000 M⁻¹ s⁻¹.

The target of another assay is T4, recombinant human LAG-3-Fc (human, UniProt P18627 23-450).
T4 construct: also called human LAG-3 (R&D Systems cat no. 2319-L3); LAG3 antigen
T4 sequence: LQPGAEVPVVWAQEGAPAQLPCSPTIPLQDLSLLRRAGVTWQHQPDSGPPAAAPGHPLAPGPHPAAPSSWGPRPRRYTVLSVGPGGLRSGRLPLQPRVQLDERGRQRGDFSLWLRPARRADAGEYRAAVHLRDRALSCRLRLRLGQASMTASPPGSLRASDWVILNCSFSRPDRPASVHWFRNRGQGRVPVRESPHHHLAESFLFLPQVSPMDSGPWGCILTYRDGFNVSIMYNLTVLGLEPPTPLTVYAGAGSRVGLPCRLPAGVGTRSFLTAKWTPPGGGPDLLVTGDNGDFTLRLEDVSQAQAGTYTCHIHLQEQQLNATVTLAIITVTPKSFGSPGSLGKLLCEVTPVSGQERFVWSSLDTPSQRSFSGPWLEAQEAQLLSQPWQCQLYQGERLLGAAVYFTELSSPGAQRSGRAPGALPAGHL
The assay can be described thus: BLI (Octet); human LAG-3-Fc captured on protein G biosensors, 1:1 fit. As to the method: as §1
Regarding B5, the Kd stood at 0.744 nM, the koff turned out to be 0.00112 s⁻¹ and the kon worked out at 1.5e+06 M⁻¹ s⁻¹.

Another assay addresses T4, recombinant human LAG-3-Fc. The assay is described as follows: BLI (Octet); human LAG-3-Fc amine-coupled to biosensor, VH in solution, 1:1 fit. On the procedure:
Binding kinetics were measured in real-time bio-layer interferometer based biosensor Octet (ForteBio). […] All the binding studies were performed in HBS-ET Octet kinetics buffer. Biosensors were washed in Octet kinetics buffer in between different steps. A seven point, two-fold dilution series of each Humabody® VH was made with a top concentration of 1.6 μM. The contact time for each of the association steps was 150 seconds and the dissociation step was 300-400 seconds. Kinetic association (kₐ) and dissociation (kd) rate constants were determined by processing and fitting the data to a 1:1 binding model using ForteBio Analysis software.
Turning to B6, the Kd turned out to be 72.1 nM, the koff came out at 0.00179 s⁻¹ and the kon stood at 24800 M⁻¹ s⁻¹.
Take B7: the equilibrium dissociation constant (Kd) worked out at 7.9 nM, the koff amounted to 0.000517 s⁻¹ and the kon turned out to be 65500 M⁻¹ s⁻¹.
The matching figures for B8: 31.3 nM, 0.00343 s⁻¹ and 110000 M⁻¹ s⁻¹.
On to B9, for which the Kd was 35.5 nM, the koff was determined as 0.000912 s⁻¹ and the kon was found to be 27000 M⁻¹ s⁻¹.
Regarding B10, the Kd came to 13 nM, the koff was 0.00126 s⁻¹ and the kon is 96700 M⁻¹ s⁻¹.
Consider B11, for which the Kd amounted to 8.41 nM, the koff is 0.000479 s⁻¹ and the kon was 56900 M⁻¹ s⁻¹.
On the same counts, the results for B12 are 53.2 nM, 0.00383 s⁻¹ and 72100 M⁻¹ s⁻¹.
As for B13, the Kd turned out to be 35.5 nM, the koff is 0.000847 s⁻¹ and the kon is 23900 M⁻¹ s⁻¹.
For B14, the Kd worked out at 34.5 nM, the koff was found to be 0.000899 s⁻¹ and the kon came out at 26100 M⁻¹ s⁻¹.

The target in the next assay is T2, human PD-1 expressed on cells. The assay can be described thus: cell-based or functional assay. The source holds these as a separate data set.
With B15, the “EC50 (M), NFAT-Luciferase Reporter Gene assay (PD-1:PD-L1)” value was found to be 9.7e-09 M.
With B4, the “EC50 (M), NFAT-Luciferase Reporter Gene assay (PD-1:PD-L1)” value worked out at 3.7e-08 M.

These data come from US20210015937A1 (CRESCENDO BIOLOGICS, published 2021).
